# The nanobody polyreactivity screen of Harvey et al. (2022)
# Experiment: yeast display, Sf9 membrane polyspecificity reagent, FACS + sequencing; frameworks hold sequencing errors
# How it was run: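 Galactose induction of a Saccharomyces cerevisiae BJ5465 synthetic nanobody display library ran 36–48 hours. The cells were then stained for 1 hour at 4 °C with 10% biotinylated, detergent-solubilized Sf9 membrane reagent, pulled down on streptavidin microbeads and FACS-sorted into low and high (top ~1%) gates on expression and reagent-binding fluorescence. Labels for polyreactivity follow the gate of origin.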
row,Sequence,polyreactivity (PSR sort gate)
1,QVQLVESGGGLVQAGGSLRLSCAASGITFTVYTMGWYRQAPGKERELVAAITTSGTTTYYADSVKGRFTISRDNAKNTVYLQINSLKPEDTAVYYCAARQVWGEGVKSYYWGQGTQVTVSS,high polyreactivity
2,QVQLVESGGGLVQAGGSLRLSCAASGITFTWYGMGWYRQAPGKERELVAAISLTGARTYYADSVKGRFTISRDNAKNTVYLQMNSLKPEDTAVYYCNARPQGRGGTYLPRYDYWGQGTQVTVSS,high polyreactivity
3,QVQLVESGGGLVQAGGSLRLSCAASGITFVANAMGWYRQAPGKERELVAGITQTGGSTYYADSVKGRFTISRDNAKNTVYLQMNSLKPEDTAVYYCAATYRRLRYGKLYYYWGQGTQVTVSS,high polyreactivity
4,QVQLVESGGGLVQAGGSLRLSCAASGITFVAYAMGWYRQAPGKERELVAAISYNGGSTNYADSVKGRFTISRDNAKNTVYLQMNSLKPEDTAVYYCAADLAEFYPRFNYWGQGTQVTVSS,low polyreactivity
5,QVQLVESGGGLVQAGGSLRLSCAASGITFVDYAMGWYRQAPGKEREFVAAISWSGGSTYYADSVKGRFTISRDNAKNTVYLQMNSLKPEDTAVYYCAARPKFGTAHRYYYWGQGTQVTVSS,high polyreactivity
6,QVQLVESGGGLVQAGGSLRLSCAASGITFVGYAMGWYRQAPGKERELVAVINTSSSTYYADSVKGRFTISRDNAKNTVYLQLNSLKPEATAVYYCGVRGRYYYRRPQISYEYWGQGTQVTVSS,low polyreactivity
7,QVQLVESGGGLVQAGGSLRLSCAASGITFVHNVMGWYRQAPGKDRELVAAINSGGRTYYADSVKGRFTISRDNAKKTVYLQMNSLKPEDSAVYYCAALGDKRGGGHYWGQGTQVTVSS,high polyreactivity
8,QVQLVESGGGLVQAGGSLRLSCAASGITFVHYAMGWYRQAPGKERELVAAISSGGGSTYYADSVKGRFTLSRDHAKNTGNLQMHSLNPEDTAVDNCAAYVLPYGEYDYWGQGTQVTVSS,low polyreactivity
9,QVQLVESGGGLVQAGGSLRLSCAASGITFVHYVMGWYRQAPGKERELVAVITKGGARTSYADSVKGRFTISRDNAKNTVYLQMNSLKPEDTAVYYCAAREVYPLFTKYYYWGQGTQVTVSS,high polyreactivity
10,QVQLVESGGGLVQAGGSLRLSCAASGITFVPNAMGWYRQAPGKERELVARIDNGVSTNYADSVKGRFTISRDNAKNTVYLQMNSLKPEDTAVYYCAVGYWDSRYRYDWPNSDYWGQGTQVTVSS,low polyreactivity
11,QVQLVESGGGLVQAGGSLRLSCAASGITFVPYAMGWDRQAPGKERELVAAISSSGGSTYYADSVKGRFTISRDNAKNTVYLQMNSLKPEDTAVYYCNVRTHSYIGMDYWGQGTQVTVSS,low polyreactivity
12,QVQLVESGGGLVQAGGSLRLSCAASGITFVPYVMGWYRQAPGKERELVAAITVRGSRTYYADSVKGRFTISRDNAKNTVYLQMNSLKPEDTAVYYCAAGRYLSRTFFTYYYWGQGTQVTVSS,high polyreactivity
13,QVQLVESGGGLVQAGGSLRLSCAASGITFVQNVMGWYRQAPGKEREFVAGINNSGGSTYYADSVKGRFTISRDNAKNTVYLQMNSLKPEDTAVYYCAAVYDRYTYAFVYRYRRMYYWGQGTQVTVSS,low polyreactivity
14,QVQLVESGGGLVQAGGSLRLSCAASGITFVRNAMGWYRQAPGKEREFVAAISGSGVSTYADSVKGRFTISRDNAKNTVYLQMNSLKQEDTAVYYCNTDEWYHFYHGSHKYDYWGQGTQVTVSS,low polyreactivity
15,QVQLVESGGGLVQAGGSLRLSCAASGITFVRNAMGWYRQAPGKEREFVAAISGSGVSTYADSVKGRFTISRDNAKNTVYLQMNSLNPEDTAVYYCARDFPWSYAWYDYWGQGTQVTVSS,low polyreactivity
16,QVQLVESGGGLVQAGGSLRLSCAASGITFVRNAMGWYRQAPGKERELVAAISSGGSTYYADSVKGRFTISRDNAKNTVYLQINSLKPEDTAVYYCNAQIYGRQYRYRWHYYWGQGTQVTVSS,high polyreactivity
17,QVQLVESGGGLVQAGGSLRLSCAASGITFVRNTMGWYRQAPGKERELVAAIDSGGNTNADSVKGRFTISRDNAKNTVYLQMNSLTPEDTAVYYCAVDGGEFSSYGYWGQGTQVTVSW,low polyreactivity
18,QVQLVESGGGLVQAGGSLRLSCAASGITFVRNTMGWYRQAPGKERELVAAISKSGDNTYYADSVKGRFTISRDNAKNTVYLQMNSLKPEDTAVYYCNKAYRKFYYGYDYWGQGTQVTVSS,high polyreactivity
19,QVQLVESGGGLVQAGGSLRLSCAASGITFVTYAMGWYRKAPGKERELVAAISRSGGRTYYADSVKGRFTISRDNAKNTVYLQMNSLKPEDTAVYYCAAERKNKYDYWGQGTQVTVSS,high polyreactivity
20,QVQLVESGGGLVQAGGSLRLSCAASGITFVYYTMGWYRQAPGKERELVAAISSTGGSTYYADSVKGRFTISRDNAKNTVYLQMNSLKPEDTAVYYCAADARTFGGYGYWGQGTQVTVAS,high polyreactivity

row,Sequence,polyreactivity (PSR sort gate)
1,QVQLVESGGGLVQAGGSLRLSCAASGITFVYYVMGWYRQAPGKERELVAAINAGGGSTYYADSVKGRFTISRDNAKNTVYLQMNSLKPEDTAVYYCNARVRVRLGRNWSSYYYWGQGTQVTVSS,high polyreactivity
2,QVQLVESGGGLVQAGGSLRLSCAASGITFWFYSKGWYRQSPGNERELVAAISRSGSTNYADSVKGRFTISRDNAKNTVYLQMNSLKPEDTAVYYCAASTYKYKLLYYQYDYWGQGTQVTVSS,high polyreactivity
3,QVQLVESGGGLVQAGGSLRLSCAASGITFWGYAMGWYRQAPGKEREFVARINWSGGRTYYAESVKGRFTNSRDNAKNTVYLQMNSLKPEDTAVYYCAATSLIYGYRTYDYWGQGTQVTVSS,high polyreactivity
4,QVQLVESGGGLVQAGGSLRLSCAASGITFWKYAMGWYRQAPGKERELVAVITKSGGSTYYADSVKGRFTISRDNAKNTVYLQMNSLKPEDTAVYYCAASSETYYYGYEYWGQGTQVTVSS,high polyreactivity
5,QVQLVESGGGLVQAGGSLRLSCAASGITFWKYTMGWYIPAPGKERELVASIRIGGSTYYADSVKGRFTISRDNAKNTVYLQMNSLKPEDTAVYYCAAKGIYGLQGSPRSGYYYWGQGTQVTVSS,high polyreactivity
6,QVQLVESGGGLVQAGGSLRLSCAASGITFWNYAMGWYRQAPGKERELVAAISYSGGSTYYADSVKGRFTISRDNAKNTVYLQMNSLKPEDTAVYYCAATLPTNWVRYEYWGQGTQVTVSS,low polyreactivity
7,QVQLVESGGGLVQAGGSLRLSCAASGITFWSNSMGWYRQAPGKERELVATITSSGGDNTNYADSVKGRFTISRDNAKNSVYLQMNSLKPEDTAVYYCNKEGQQSYRWRMDYWGQGTQVTVSS,low polyreactivity
8,QVQLVESGGGLVQAGGSLRLSCAASGITFWSYAMGWYRQAPGKERELVAAITWRGGSTYYADSVKGRFTISRDNAKNTVYLQMNSLKPEDTAVYYCNAVYRRDGYNYWGQGTQVTVSS,high polyreactivity
9,QVQLVESGGGLVQAGGSLRLSCAASGITFWYYAMGWYRQAPGKERELVAVISRGGSTYYADSVKGRFTISRDNAKNTVYLQMNSLKPEDTAVYYCAARQRWYTYTRQEYDYWGQGTQVTVSS,high polyreactivity
10,QVQLVESGGGLVQAGGSLRLSCAASGITFYDNDMGWYRQAPGKERELVAGITGTTVGTYYADSVKGRFTISRDYAKNTVYLQMNSLKPEDTAVYYCAATSLAGYYQFDYWGQGTQVTVSS,low polyreactivity
11,QVQLVESGGGLVQAGGSLRLSCAASGITFYDYAMGWYRQAPWKERELVAAISFSGSRTYYADSVKGRFTISRDNAKNTVYLQMNSLKPEDTAVYYCAASQARNYKIYDYWGQGTQVTVSS,high polyreactivity
12,QVQLVESGGGLVQAGGSLRLSCAASGITFYDYAMGWYRQEPGKERELVAAINSSGVRTYYADSVKGRFTISRDNAKNTVYLQMNSLKPEDTAVYYCAAVRRGPYISRSDMDYYWGQGTQVTVSS,high polyreactivity
13,QVQLVESGGGLVQAGGSLRLSCAASGITFYGNAMGWYRQAPGKERELVAAISSSGGTTYYADSVKGRFTISRDNAKNTVYLQMNSLKPEDTAVYYCNALHPVVYYGTYFNLRRYDYWGQGTQVTVSS,low polyreactivity
14,QVQLVESGGGLVQAGGSLRLSCAASGITFYGNAMGWYRQAPGKERELVANTYYADSVKGRFTISRDNAKNTVYLQMNSLKPEDTAVYYCATRNARYRSQPPGYDYWGQGTQVTVSS,low polyreactivity
15,QVQLVESGGGLVQAGGSLRLSCAASGITFYGNAMGWYRQAPGKERELVATISRSDGRTYYADSVKGRFTISRDNANNTVYLQMNSLKPEDTAVYYCAAYTTRPYWGQGTQVTVSS,high polyreactivity
16,QVQLVESGGGLVQAGGSLRLSCAASGITFYGYAMGWYRQAPGKERELVARISSGGTTKYADSVKGRFTISRDNAKNTVYLQMNSLKPEDTAVYYCAVGGYWWYYGFYYWGQGTQVTVSS,high polyreactivity
17,QVQLVESGGGLVQAGGSLRLSCAASGITFYGYAMGWYRQAPGKERELVAVITSSGSSTYYADSVKGRFTISRDNAKNTVYLQMNSLKPEDTAVYDCNARPGRRSLRSRTYDYWGQGTQVTVSS,high polyreactivity
18,QVQLVESGGGLVQAGGSLRLSCAASGITFYHYAMGWYRQAPGKKRELVASITDGGITKYADSVKGRFTISRDNAKYTVYLQMNSQNPEDTAVYYCAAIAYPDIPTYFDYDSDFFYWGQGTQVTVSS,high polyreactivity
19,QVQLVESGGGLVQAGGSLRLSCAASGITFYIYAMGWYRQAPGKEREFVAAISDDGSTHYADSVKGRFTISRDNAKNTVYLQLNSLKPEDTAVYYCNADYYWFFDFFDYDYWGQGTQVTVSS,low polyreactivity
20,QVQLVESGGGLVQAGGSLRLSCAASGITFYIYAMGWYRQSPGKERELVATISWSDGRTYYADSVKGRFTISRDNAKNTVYLLMNSLKPEDTAVYYCAADWWYYQFDYEYWGQGTQVTVSS,low polyreactivity
